From patent US20110217734A1 (UNIVERSITY OF ILLINOIS AT URBANA CHAMPAIGN, published 2011) come the findings set out here.

The series concerns the molecule itself. The experiment in a line: size-exclusion chromatography, self-association. (In gel filtration, larger molecules generally elute earlier.)

B1: RhiG-C-His (enzyme)
chain: MKMQLIDCTLRDGGNFNNWFFSAEDINQIILHLDKANVNIIEIGYIGGSGSNKEKSVGSLANCTPELLEQLPKTIHSHLAAMVVPSVCELHLLDNLNPQLIPWIRVASYPHNAEDALPYIEYLKNRGFHVSFNVMAASYIEEKDMAELAKKSHVFGADVFYMADSFGNLTPDGVRKRVAAAFDQADCPVGFHGHNNLGLAFTNALEAMDAGATFIDTSLCGMARGAGNLPTEQFVSAIHHWDKFGDIPYKLHPILTAAEYVLSSILSSPMKISTPEIISGISNIHYYFYDLVISKCREVNLDPLQVSTLLGQTLPKRVDMSYIESVIDQNFRQESAK
notes: Recombinant protein expressed in E. coli BL21(DE3), 38.7 kDa per chain; Size-exclusion chromatography gave a native MW of about 75 kDa (homodimer); also called RhiG purified as a C-terminal fusion with a hexahistidine tag; not shown: C-terminal hexahistidine tag from the pET26b vector
For the protein B1, the binding result is “binds”.
